According to patent US20140271457A1 (AbbVie / Abbott, published 2014):

B1: DVD3014 (bispecific antibody, human IgG1, kappa)
heavy: not shown
light: DIQMTQSPSSLSASVGDRVTISCRASQDIRNYLNWYQQKPGKAPKLLIFYTSKLHSGVPSRFSGSGSGTDYTLTISSLQPEDIATYYCQQGLTPPLTFGGGTKVEIKRTVAAPDIQMTQSPSSLSASVGDRVTITCRASQDIENYLNWYQQKPGKAPKLLIYYTSRLQSGVPSRFSGSGSGTDFTLTISSLQPEDFATYFCQQGNTQPPTFGQGTKLEIKRTVAAPSVFIFPPSDEQLKSGTASVVCLLNNFYPREAKVQWKVDNALQSGNSQESVTEQDSKDSTYSLSSTLTLSKADYEKHKVYACEVTHQGLSSPVTKSFNRGEC
B2: DVD3016 (bispecific antibody, human IgG1, kappa)
heavy: not shown
light: DIQMTQSPSSLSASVGDRVTISCRASQDIRNYLNWYQQKPGKAPKLLIFYTSKLHSGVPSRFSGSGSGTDYTLTISSLQPEDIATYYCQQGLTPPLTFGGGTKVEIKRTVAAPSVFIFPPDIQMTQSPSSLSASVGDRVTITCRASQDIENYLNWYQQKPGKAPKLLIYYTSRLQSGVPSRFSGSGSGTDFTLTISSLQPEDFATYFCQQGNTQPPTFGQGTKLEIKRTVAAPSVFIFPPSDEQLKSGTASVVCLLNNFYPREAKVQWKVDNALQSGNSQESVTEQDSKDSTYSLSSTLTLSKADYEKHKVYACEVTHQGLSSPVTKSFNRGEC
B3: DVD3017 (bispecific antibody, human IgG1, kappa)
heavy: not shown
light: DIQMTQSPSSLSASVGDRVTISCRASQDIRNYLNWYQQKPGKAPKLLIFYTSKLHSGVPSRFSGSGSGTDYTLTISSLQPEDIATYYCQQGLTPPLTFGGGTKVEIKRTVAAPDIQMTQSPSSLSASVGDRVTITCRASQDIENYLNWYQQKPGKAPKLLIYYTSRLQSGVPSRFSGSGSGTDFTLTISSLQPEDFATYFCQQGNTQPPTFGQGTKLEIKRTVAAPSVFIFPPSDEQLKSGTASVVCLLNNFYPREAKVQWKVDNALQSGNSQESVTEQDSKDSTYSLSSTLTLSKADYEKHKVYACEVTHQGLSSPVTKSFNRGEC
B4: DVD3083 (bispecific antibody, human IgG1, kappa)
heavy: not shown
light: DIQMTQSPSSLSASVGDRVTITCRASQLVSSAVAWYQQKPGKAPKLLIYWASARHTGVPSRFSGSGSGTDFTLTISSLQPEDFATYYCQQHYKTPFTFGQGTKLEIKRGGSGGGGSGDVVMTQSPLSLPVTLGQPASISCRSSQSLVHSHGNTYLHWYQQRPGQSPRLLIYTVSNRFSGVPDRFSGSGSGTDFTLKISRVEAEDVGVYYCSQSTHVPYTFGGGTKVEIKRTVAAPSVFIFPPSDEQLKSGTASVVCLLNNFYPREAKVQWKVDNALQSGNSQESVTEQDSKDSTYSLSSTLTLSKADYEKHKVYACEVTHQGLSSPVTKSFNRGEC
B5: DVD3093 (bispecific antibody)
heavy: not shown
light: DIQMTQSPSSLSASVGDRVTITCKASQLVSSAVAWYQQKPGKAPKLLIYWASTLHTGVPSRFSGSGSGTDFTLTISSLQPEDFATYYCQQHYRTPFTFGQGTKLEIKRGGSGGGGSGDVVMTQSPLSLPVTLGQPASISCRSSQSLVHSHGNTYLHWYQQRPGQSPRLLIYTVSNRFSGVPDRFSGSGSGTDFTLKISRVEAEDVGVYYCSQSTHVPYTFGGGTKVEIKRTVAAPSVFIFPPSDEQLKSGTASVVCLLNNFYPREAKVQWKVDNALQSGNSQESVTEQDSKDSTYSLSSTLTLSKADYEKHKVYACEVTHQGLSSPVTKSFNRGEC
B6: DVD3084 (bispecific antibody, human IgG1, kappa)
heavy: not shown
light: DIQMTQSPSSLSASVGDRVTITCRASQLVSSAVAWYQQKPGKAPKLLIYWASARHTGVPSRFSGSGSGTDFTLTISSLQPEDFATYYCQQHYKTPFTFGQGTKLEIKRTVAAPDVVMTQSPLSLPVTLGQPASISCRSSQSLVHSHGNTYLHWYQQRPGQSPRLLIYTVSNRFSGVPDRFSGSGSGTDFTLKISRVEAEDVGVYYCSQSTHVPYTFGGGTKVEIKRTVAAPSVFIFPPSDEQLKSGTASVVCLLNNFYPREAKVQWKVDNALQSGNSQESVTEQDSKDSTYSLSSTLTLSKADYEKHKVYACEVTHQGLSSPVTKSFNRGEC
B7: DVD3094 (bispecific antibody)
heavy: not shown
light: DIQMTQSPSSLSASVGDRVTITCKASQLVSSAVAWYQQKPGKAPKLLIYWASTLHTGVPSRFSGSGSGTDFTLTISSLQPEDFATYYCQQHYRTPFTFGQGTKLEIKRTVAAPDVVMTQSPLSLPVTLGQPASISCRSSQSLVHSHGNTYLHWYQQRPGQSPRLLIYTVSNRFSGVPDRFSGSGSGTDFTLKISRVEAEDVGVYYCSQSTHVPYTFGGGTKVEIKRTVAAPSVFIFPPSDEQLKSGTASVVCLLNNFYPREAKVQWKVDNALQSGNSQESVTEQDSKDSTYSLSSTLTLSKADYEKHKVYACEVTHQGLSSPVTKSFNRGEC
B8: DVD3086 (bispecific antibody, human IgG1, kappa)
heavy: not shown
light: DIQMTQSPSSLSASVGDRVTITCRASQLVSSAVAWYQQKPGKAPKLLIYWASARHTGVPSRFSGSGSGTDFTLTISSLQPEDFATYYCQQHYKTPFTFGQGTKLEIKRTVAAPSVFIFPPDVVMTQSPLSLPVTLGQPASISCRSSQSLVHSHGNTYLHWYQQRPGQSPRLLIYTVSNRFSGVPDRFSGSGSGTDFTLKISRVEAEDVGVYYCSQSTHVPYTFGGGTKVEIKRTVAAPSVFIFPPSDEQLKSGTASVVCLLNNFYPREAKVQWKVDNALQSGNSQESVTEQDSKDSTYSLSSTLTLSKADYEKHKVYACEVTHQGLSSPVTKSFNRGEC
B9: DVD3096 (bispecific antibody)
heavy: not shown
light: DIQMTQSPSSLSASVGDRVTITCKASQLVSSAVAWYQQKPGKAPKLLIYWASTLHTGVPSRFSGSGSGTDFTLTISSLQPEDFATYYCQQHYRTPFTFGQGTKLEIKRTVAAPSVFIFPPDVVMTQSPLSLPVTLGQPASISCRSSQSLVHSHGNTYLHWYQQRPGQSPRLLIYTVSNRFSGVPDRFSGSGSGTDFTLKISRVEAEDVGVYYCSQSTHVPYTFGGGTKVEIKRTVAAPSVFIFPPSDEQLKSGTASVVCLLNNFYPREAKVQWKVDNALQSGNSQESVTEQDSKDSTYSLSSTLTLSKADYEKHKVYACEVTHQGLSSPVTKSFNRGEC
B10: DVD3087 (bispecific antibody, human IgG1, kappa)
heavy: not shown
light: DIQMTQSPSSLSASVGDRVTITCRASQLVSSAVAWYQQKPGKAPKLLIYWASARHTGVPSRFSGSGSGTDFTLTISSLQPEDFATYYCQQHYKTPFTFGQGTKLEIKRTVAAPDVVMTQSPLSLPVTLGQPASISCRSSQSLVHSHGNTYLHWYQQRPGQSPRLLIYTVSNRFSGVPDRFSGSGSGTDFTLKISRVEAEDVGVYYCSQSTHVPYTFGGGTKVEIKRTVAAPSVFIFPPSDEQLKSGTASVVCLLNNFYPREAKVQWKVDNALQSGNSQESVTEQDSKDSTYSLSSTLTLSKADYEKHKVYACEVTHQGLSSPVTKSFNRGEC
B11: DVD3097 (bispecific antibody)
heavy: not shown
light: DIQMTQSPSSLSASVGDRVTITCKASQLVSSAVAWYQQKPGKAPKLLIYWASTLHTGVPSRFSGSGSGTDFTLTISSLQPEDFATYYCQQHYRTPFTFGQGTKLEIKRTVAAPDVVMTQSPLSLPVTLGQPASISCRSSQSLVHSHGNTYLHWYQQRPGQSPRLLIYTVSNRFSGVPDRFSGSGSGTDFTLKISRVEAEDVGVYYCSQSTHVPYTFGGGTKVEIKRTVAAPSVFIFPPSDEQLKSGTASVVCLLNNFYPREAKVQWKVDNALQSGNSQESVTEQDSKDSTYSLSSTLTLSKADYEKHKVYACEVTHQGLSSPVTKSFNRGEC
B12: DVD3088 (bispecific antibody, human IgG1, kappa)
heavy: not shown
light: DVVMTQSPLSLPVTLGQPASISCRSSQSLVHSHGNTYLHWYQQRPGQSPRLLIYTVSNRFSGVPDRFSGSGSGTDFTLKISRVEAEDVGVYYCSQSTHVPYTFGGGTKVEIKRGGSGGGGSGDIQMTQSPSSLSASVGDRVTITCRASQLVSSAVAWYQQKPGKAPKLLIYWASARHTGVPSRFSGSGSGTDFTLTISSLQPEDFATYYCQQHYKTPFTFGQGTKLEIKRTVAAPSVFIFPPSDEQLKSGTASVVCLLNNFYPREAKVQWKVDNALQSGNSQESVTEQDSKDSTYSLSSTLTLSKADYEKHKVYACEVTHQGLSSPVTKSFNRGEC
B13: DVD3089 (bispecific antibody, human IgG1, kappa)
heavy: not shown
light: DVVMTQSPLSLPVTLGQPASISCRSSQSLVHSHGNTYLHWYQQRPGQSPRLLIYTVSNRFSGVPDRFSGSGSGTDFTLKISRVEAEDVGVYYCSQSTHVPYTFGGGTKVEIKRTVAAPDIQMTQSPSSLSASVGDRVTITCRASQLVSSAVAWYQQKPGKAPKLLIYWASARHTGVPSRFSGSGSGTDFTLTISSLQPEDFATYYCQQHYKTPFTFGQGTKLEIKRTVAAPSVFIFPPSDEQLKSGTASVVCLLNNFYPREAKVQWKVDNALQSGNSQESVTEQDSKDSTYSLSSTLTLSKADYEKHKVYACEVTHQGLSSPVTKSFNRGEC
B14: DVD3091 (bispecific antibody, human IgG1, kappa)
heavy: not shown
light: DVVMTQSPLSLPVTLGQPASISCRSSQSLVHSHGNTYLHWYQQRPGQSPRLLIYTVSNRFSGVPDRFSGSGSGTDFTLKISRVEAEDVGVYYCSQSTHVPYTFGGGTKVEIKRTVAAPSVFIFPPDIQMTQSPSSLSASVGDRVTITCRASQLVSSAVAWYQQKPGKAPKLLIYWASARHTGVPSRFSGSGSGTDFTLTISSLQPEDFATYYCQQHYKTPFTFGQGTKLEIKRTVAAPSVFIFPPSDEQLKSGTASVVCLLNNFYPREAKVQWKVDNALQSGNSQESVTEQDSKDSTYSLSSTLTLSKADYEKHKVYACEVTHQGLSSPVTKSFNRGEC
B15: DVD3092 (bispecific antibody, human IgG1, kappa)
heavy: not shown
light: DVVMTQSPLSLPVTLGQPASISCRSSQSLVHSHGNTYLHWYQQRPGQSPRLLIYTVSNRFSGVPDRFSGSGSGTDFTLKISRVEAEDVGVYYCSQSTHVPYTFGGGTKVEIKRTVAAPDIQMTQSPSSLSASVGDRVTITCRASQLVSSAVAWYQQKPGKAPKLLIYWASARHTGVPSRFSGSGSGTDFTLTISSLQPEDFATYYCQQHYKTPFTFGQGTKLEIKRTVAAPSVFIFPPSDEQLKSGTASVVCLLNNFYPREAKVQWKVDNALQSGNSQESVTEQDSKDSTYSLSSTLTLSKADYEKHKVYACEVTHQGLSSPVTKSFNRGEC
B16: DVD3098 (bispecific antibody, human IgG1, kappa)
heavy: not shown
light: DVVMTQSPLSLPVTLGQPASISCRSSQSLVHSHGNTYLHWYQQRPGQSPRLLIYTVSNRFSGVPDRFSGSGSGTDFTLKISRVEAEDVGVYYCSQSTHVPYTFGGGTKVEIKRGGSGGGGSGDIQMTQSPSSLSASVGDRVTITCKASQLVSSAVAWYQQKPGKAPKLLIYWASTLHTGVPSRFSGSGSGTDFTLTISSLQPEDFATYYCQQHYRTPFTFGQGTKLEIKRTVAAPSVFIFPPSDEQLKSGTASVVCLLNNFYPREAKVQWKVDNALQSGNSQESVTEQDSKDSTYSLSSTLTLSKADYEKHKVYACEVTHQGLSSPVTKSFNRGEC

Target: Recombinant Human IL-13 (human, UniProt P35225 35-146, limits assumed)
Experiment: cell-based or functional assay

Chain of Recombinant Human IL-13 (P35225 35-146 limits assumed): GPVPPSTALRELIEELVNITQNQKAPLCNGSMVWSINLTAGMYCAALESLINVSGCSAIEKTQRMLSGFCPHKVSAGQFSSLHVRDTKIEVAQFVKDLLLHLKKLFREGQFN

Binder | IL-13 Neutralization Assay IC50 [nM]
B1 | 0.132
B2 | 0.081
B3 | 0.111
B4 | 0.098
B5 | 0.067
B6 | 0.587
B7 | 0.444
B8 | 0.12
B9 | 0.064
B10 | 0.082
B11 | 0.072
B12 | 0.103
B13 | 0.074
B14 | 0.056
B15 | 0.06
B16 | 0.059
